# Source: US20200165312A1, “COSMETIC COMPOSITION FOR IMPROVING SKIN CONDITIONS COMPRISING FUSION PROTEIN INCLUDING SKIN PENETRATION ENHANCING PEPTIDE” (LG HOUSEHOLD & HEALTH CARE LTD., priority 2017, published 2020)
# Key:
# [1] = Skin penetrability of growth factor fusion proteins (Franz glass cell, ELISA); assay type: in vitro ADME, porcine; conditions: for Penetrated amount (%): 2 μg, 16 hours
# Description: (§1) Specifically, porcine skin (thickness: 0.7 mm, Medikinetics) was placed between upper and lower ends of Franz glass cell (standard diameter: 9 mm, Receiver 5 mL, Permegear), and TBS (50 mM Tris pH 7.5, 150 mM NaCl) including 1% BSA and 0.01% Tween 20 was prepared. Then, 500 μL of the TBS was applied to the upper end of the glass cell (Donor chamber), and 5 mL of the TBS was applied to the lower end of the glass cell, (Receiver chamber). Subsequently, 2 μg of PDGFa or T-PDGFa was applied to the upper end of the glass cell, followed by reaction for 16 hours. Then, a concentration of PDGFa or T-PDGFa was quantitatively analyzed using the ELISA kit (R&D Systems), and a relative amount of T-PDGFa to PDGFa was calculated as a penetrated amount (Table 7).
# Specifically, porcine skin (thickness: 0.7 mm, Medikinetics) was placed between upper and lower ends of Franz glass cell (standard diameter: 9 mm, Receiver 5 mL, Permegear), and TBS (50 mM Tris pH 7.5, 150 mM NaCl) including 1% BSA and 0.01% Tween 20 was prepared. Then, 500 μL of the TBS was applied to the upper end of the glass cell (Donor chamber), and 5 mL of the TBS was applied to the lower end of the glass cell, (Receiver chamber).
# as §1, with “IGF-1” for “PDGFa”, “T-IGF-1” for “T-PDGFa”, “16).” for “7).”
# as §1, with “KGF” for “PDGFa”, “T-KGF” for “T-PDGFa”, “20).” for “7).”
# as §1, with “Tβ4” for “PDGFa”, “T-Tβ4” for “T-PDGFa”, “24).” for “7).”
# dermal fibroblasts = experiment: Hyaluronic acid (HA) production in dermal fibroblasts (ELISA); assay type: cell-based, human; conditions: 10 ng/mL T-PDGFa or PDGFa, two days; control = 100
# Description: (§2) Specifically, dermal fibroblasts were inoculated onto a 24-well plate and cultured for 24 hours to obtain cultures having a saturation degree of 70 to 80%. The cultures were washed with PBS and cultured in a serum-free DMEM medium including 10 ng/mL T-PDGFa or PDGFa for two days. A supernatant was obtained therefrom and the amount of hyaluronic acid (HA) produced and released in the culture solution was quantitively analyzed using an ELISA kit (R&D Systems) (Table 5).
# as §2, with “The cultures were washed with PBS and cultured in a serum-free DMEM medium including 10 ng/mL T-PDGFa or PDGFa for two days.” left out, “9).” for “5).”
# [2] = tested on: human umbilical vein endothelial cells; experiment: Endothelial cell proliferation, Cell Counter Kit-8; assay type: cell-based; conditions: for Proliferation (%): 100 ng/mL T-Tβ4 or Tβ4, serum-free M199, one day, control = 100
# Description: Specifically, human umbilical vein endothelial cells were inoculated onto a 96-well plate and cultured for 24 hours to obtain cultures at a density of 5,000 cells per well. The cultures were washed with PBS and cultured in a serum-free M199 medium for 16 hours. […] The cultures were obtained therefrom and a difference between proliferated amounts of cells was quantitively analyzed using the Cell Counter Kit-8 (Dojindo).
# Specifically, human umbilical vein endothelial cells were inoculated onto a 96-well plate and cultured for 24 hours to obtain cultures at a density of 5,000 cells per well. The cultures were washed with PBS and cultured in a serum-free M199 medium for 16 hours. The cells were washed with PBS again and cultured in a serum-free M199 medium supplemented with 100 ng/mL T-Tβ4 or Tβ4 for one day. The cultures were obtained therefrom and a difference between proliferated amounts of cells was quantitively analyzed using the Cell Counter Kit-8 (Dojindo). Here, human umbilical vein endothelial cells cultured in a serum-free M199 medium without T-Tβ4 or Tβ4 were used as a control (Table 22).
substance,measurement,setting,value
IGF-1: insulin-like growth factor-1 having an amino acid sequence of SEQ ID NO: 41,Penetrated amount (%),[1]; relative to IGF-1,100 ± 14%
PDGFa: platelet-derived growth factor subunit a having an amino acid sequence of SEQ ID NO: 35,Production (%) of hyaluronic acid (HA),dermal fibroblasts,897 ± 30%
same,Penetrated amount (%),[1]; relative to PDGFa,100 ± 29%
T-Tβ4: SEQ ID NO: 1 peptide C-terminal linked to N-terminal of Tβ4 via GG linker (NGSLNTHLAPILGGSDKPDMAEIEKFDKSKLKKTETQEKNPLPSKETIEQEKQAGES; Synthetic Fusion protein of T-T beta 4),Proliferation (%),[2],165 ± 17%
same,cell proliferation effect compared with the unfused protein,"[2]; human umbilical vein endothelial cells, 100 ng/mL",same level
same,Penetrated amount (%),[1]; relative to Tβ4,310 ± 28%
same,skin penetrability compared with the unfused protein,"[1]; summary of Tables 7, 12, 16, 20, 24",about three times higher
Tβ4: thymosin beta 4 having an amino acid sequence of SEQ ID NO: 47,Proliferation (%),[2],180 ± 8%
same,Penetrated amount (%),[1]; relative to Tβ4,100 ± 21%
